Experiments:
[1] = target: the molecule itself; assay: SEC
[2] = target: the molecule itself; assay: AUC
[3] = target: the molecule itself; assay: SEC; remark: listed apart in the source

B1: SATB1 EFH-AAA mutant, full length (natural protein, mouse, UniProt Q60611 1-764, looked up)
chain: MDHLNEATQGKEHSEMSNNVSDPKGPPAKIARLEQNGSPLGRGRLGSTGGKMQGVPLKHSGHLMKTNLRKGTMLPVFCVVEHYENAIEYDCKEEHAAAVLVRKDMLFNQLIEMALLSLGYSHSSAAQAKGLIQVGKWNPVPLSYVTDAPDATVADMLQDVYAVVTLKIQLHSCPKLEDLPPEQWSHTTVRNALKDLLKDMNQSSLAKECPLSQSMISSIVNSTYYANVSAAKCQEFGRWYKHFKKTKDMMVEMDSLSELSQQGANHVNFGQQPVPGNTAEQPPSPAQLSHGSQPSVRTPLPNLHPGLVSTPISPQLVNQQLVMAQLLNQQYAVNRLLAQQSLNQQYLNHPPPVSRSMNKPLEQQVSTNTEVSSEIYQWVRDELKRAGISQAVFARVAFNRTQGLLSEILRKEEDPKTASQSLLVNLRAMQNFLQLPEAERDRIYQDERERSLNAASAMGPAPLLSTPPSRPPQVKTATLATERNGKPENNTMNINASIYDEIQQEMKRAKVSQALFAKVAATKSQGWLCELLRWKEDPSPENRTLWENLSMIRRFLSLPQPERDAIYEQESNAVHHHGDRPPHIIHVPAEQIQQQQQQQQQQQQQQQPPPPPPQPQPQPQAGPRLPPRQPTVASSAESDEENRQKTRPRTKISVEALGILQSFIQDVGLYPDEEAIQTLSAQLDLPKYTIIKFFQNQRYYLKHHGKLKDNSGLEVDVAEYKDEELLKDLEESVQDKNANTLFSVKLEEELSVEGSTDVNADLKD
binding result [1]: binds

B2: SATB1 KWN-AAA mutant, full length (natural protein, mouse, UniProt Q60611 1-764, looked up)
chain: MDHLNEATQGKEHSEMSNNVSDPKGPPAKIARLEQNGSPLGRGRLGSTGGKMQGVPLKHSGHLMKTNLRKGTMLPVFCVVEHYENAIEYDCKEEHAEFVLVRKDMLFNQLIEMALLSLGYSHSSAAQAKGLIQVGAAAPVPLSYVTDAPDATVADMLQDVYHVVTLKIQLHSCPKLEDLPPEQWSHTTVRNALKDLLKDMNQSSLAKECPLSQSMISSIVNSTYYANVSAAKCQEFGRWYKHFKKTKDMMVEMDSLSELSQQGANHVNFGQQPVPGNTAEQPPSPAQLSHGSQPSVRTPLPNLHPGLVSTPISPQLVNQQLVMAQLLNQQYAVNRLLAQQSLNQQYLNHPPPVSRSMNKPLEQQVSTNTEVSSEIYQWVRDELKRAGISQAVFARVAFNRTQGLLSEILRKEEDPKTASQSLLVNLRAMQNFLQLPEAERDRIYQDERERSLNAASAMGPAPLLSTPPSRPPQVKTATLATERNGKPENNTMNINASIYDEIQQEMKRAKVSQALFAKVAATKSQGWLCELLRWKEDPSPENRTLWENLSMIRRFLSLPQPERDAIYEQESNAVHHHGDRPPHIIHVPAEQIQQQQQQQQQQQQQQQPPPPPPQPQPQPQAGPRLPPRQPTVASSAESDEENRQKTRPRTKISVEALGILQSFIQDVGLYPDEEAIQTLSAQLDLPKYTIIKFFQNQRYYLKHHGKLKDNSGLEVDVAEYKDEELLKDLEESVQDKNANTLFSVKLEEELSVEGSTDVNADLKD
stoichiometry N [2]: 2

B3: SATB1 ubiquitin-like domain (ULD), residues 71-172 (domain or fragment, mouse, UniProt Q60611 71-172, looked up)
chain: GTMLPVFCVVEHYENAIEYDCKEEHAEFVLVRKDMLFNQLIEMALLSLGYSHSSAAQAKGLIQVGKWNPVPLSYVTDAPDATVADMLQDVYHVVTLKIQLHS
stoichiometry N [3]: 4

Source: PMC3351170 (Nucleic Acids Research, 2012)
